This assay concerns the target wild type p53 (human cells) (human) (UniProt P04637). Briefly: cell-based or functional assay.

In turn, “p28^ING1 (alternative splice variant of human ING1)” yielded a WAF1 mRNA level in HT1080 cells (Northern blot) of 4 to 6 times.

Source of the values: US20030073084A1.
